We go through 57 variants from the RNAGym collection of RNA variant scans (doi:10.7554/elife.80360).

To fix the notation:
B1: Hammerhead Ribozyme (parent)
chain: ACCGGAUGUGCUUUCCGGUCUGAUGAGUCCGUGAGGACGAAACAG

Variants of B1 are the subject of the data set. The data set can be described thus: self-cleavage, relative activity (ratio to wild type); higher = more cleavage; co-transcriptional.
ACCGGAUGUGCUUUCCCGUCUGAUGAGUCUGUGAGGACGAAACAG [G17C C30U]: the self-cleavage is 0.545.

As to ACCGGAUGUGCUUUCCGGUCUGAUGAGUCGGUGAGGAAGAAACAG [C30G C38A], the self-cleavage amounted to 0.402.

For ACCGGAUGUGCUUUACGGUCUGAUGAGUCCCUGAGGACGAAACAG [C15A G31C], the self-cleavage came out at 0.807.

As for AGCAGAUGUGCUUUCCGGUCUGAUGAGUCCGUGAGGACGAAACAG [C2G G4A], the self-cleavage came to 0.322.

In the case of ACCGGAUGCGCUUUCCGGUCUGAUGAGUCCGUGACGACGAAACAG [U9C G35C], the self-cleavage was 0.498.

ACCCGAUGUGCUUUCCGGUCUGAUGAGUCCGUGAGGACGAAACGG [G4C A44G]: the self-cleavage amounted to 0.805.

Turning to ACCGGAUGUGCUUUCCGGUGUGAUGAGUCCGUGAGGAAGAAACAG [C20G C38A], the self-cleavage was determined as 0.241.

With ACCGGAUGUGCUUUUCGGUCUGAUGAGUCCGUGAGGACGCAACAG [C15U A40C], the self-cleavage stood at 0.385.

Consider ACCGGAUGUGCUUUCCGGGCUGCUGAGUCCGUGAGGACGAAACAG [U19G A23C], for which the self-cleavage was found to be 0.346.

ACCGGAUGUGCUCUCCGGUCUAAUGAGUCCGUGAGGACGAAACAG [U13C G22A]: the self-cleavage amounted to 0.243.

For ACCGGAUGUGCUUUCCGGUCUGAAGAGUUCGUGAGGACGAAACAG [U24A C29U], the self-cleavage is 0.883.

Regarding ACCGGAUGUGCUUUCCGGUCUGAUGAGUCCGUGUGGACGAAACAA [A34U G45A], the self-cleavage was 0.477.

As for AACGGAUGUGCUUUCCGGUCUGAUGAGUCCGUGAAGACGAAACAG [C2A G35A], the self-cleavage was found to be 0.402.

For ACCGGAUGUGCUUUCCGGUCUGAUGUGUCCGUGAGUACGAAACAG [A26U G36U], the self-cleavage stood at 0.446.

For the variant ACGGGAUGUGCUUUCCGGUCUGAUGAGUCCGUGAGAACGAAACAG [C3G G36A], the self-cleavage is 0.271.

On to ACCGGAUGUGCUUUCCGGUCUGAUGAGUCCGUGAGUACGAAAGAG [G36U C43G], for which the self-cleavage came out at 0.325.

With ACCGGAUGUGCUUUCCGGUCUUAUGAGUCCGUGAGGAAGAAACAG [G22U C38A], the self-cleavage was 0.305.

For the variant ACCGGAUGUACUUUCCGGUCUGAUGAGUCCGCGAGGACGAAACAG [G10A U32C], the self-cleavage is 1.52.

Regarding GGCGGAUGUGCUUUCCGGUCUGAUGAGUCCGUGAGGACGAAACAG [A1G C2G], the self-cleavage turned out to be 0.735.

As to ACCGGAUGUGCUUUCCGCUCUGAUGAGUCCGUGAGGACGAACCAG [G18C A42C], the self-cleavage stood at 0.328.

As to ACAGGAUGUGCUUUCCGGUCUGCUGAGUCCGUGAGGACGAAACAG [C3A A23C], the self-cleavage is 0.352.

Turning to ACCGGAUGUGCUUUCCGGUCUGUUGAGUCCGUGAGGACGAAUCAG [A23U A42U], the self-cleavage amounted to 0.337.

Turning to ACCGGAUGCGCUAUCCGGUCUGAUGAGUCCGUGAGGACGAAACAG [U9C U13A], the self-cleavage was determined as 1.18.

On to ACCGGAUGUGCUUCCCGGUCUUAUGAGUCCGUGAGGACGAAACAG [U14C G22U], for which the self-cleavage worked out at 0.33.

For ACCGGAUGUGCUUCCCGGUCUCAUGAGUCCGUGAGGACGAAACAG [U14C G22C], the self-cleavage turned out to be 0.294.

Turning to ACCGGAUGUGCUUUCCGGUCUGAUGAGUCCGUGCGGACGACACAG [A34C A41C], the self-cleavage amounted to 0.354.

Consider ACCGGAUGUGCUUUCCGGUCAGAUGAGUUCGUGAGGACGAAACAG [U21A C29U], for which the self-cleavage was determined as 0.558.

As to ACCGGAAGUGCUUUCCGGUCUGAUGAGUCCGUGAGGAUGAAACAG [U7A C38U], the self-cleavage was determined as 1.27.

As for ACCGGAUGUGCUUUCCGCUCUGAUGCGUCCGUGAGGACGAAACAG [G18C A26C], the self-cleavage was determined as 0.354.

As for ACCGGAUGUGCUUUCCGGUCUGAUGAGUCCGUGCGGACGAAACUG [A34C A44U], the self-cleavage was 0.512.

On to ACCGGAUGUGCUUUCCGGUCUGGUGAGUCCGUGUGGACGAAACAG [A23G A34U], for which the self-cleavage was determined as 0.364.

Regarding ACUGGAUGUGCUUUUCGGUCUGAUGAGUCCGUGAGGACGAAACAG [C3U C15U], the self-cleavage was found to be 0.984.

For the variant ACCGGAAGUGCUUUCCGGUCUGAUGAGUCCGUGAGAACGAAACAG [U7A G36A], the self-cleavage stood at 0.681.

On to ACCGGAUGUUCUUUCCGGUCUGAUGAGUCCGAGAGGACGAAACAG [G10U U32A], for which the self-cleavage was found to be 0.896.

In the case of ACCGGAUGUGCUUUCCGGUCUUACGAGUCCGUGAGGACGAAACAG [G22U U24C], the self-cleavage came out at 0.348.

On to ACCGGAUGUGCUUUCCGGUCUGAUGAGUCCGUGAGGACGAUACAG [A41U], for which the self-cleavage came out at 0.393.

In the case of ACCUGAUGUGCUUUCCGGUCUGAUGAGUCCGUGAGGACGAAAUAG [G4U C43U], the self-cleavage is 0.261.

On to ACCGGAUGUGCUUUCCGAUCUGAUGAGUCCGUGAGGACGAUACAG [G18A A41U], for which the self-cleavage is 0.358.

For the variant ACCGGAUGUGCUUGCCGGUAUGAUGAGUCCGUGAGGACGAAACAG [U14G C20A], the self-cleavage stood at 0.481.

On to ACCGGAUGUGCUUUCCGGUCUGAUGAGGCCGUGCGGACGAAACAG [U28G A34C], for which the self-cleavage was determined as 0.411.

As for ACCGGAUUUGCUUUCCGGGCUGAUGAGUCCGUGAGGACGAAACAG [G8U U19G], the self-cleavage amounted to 0.369.

ACCGGAUGUGCUUUCCCGUCUGAUGAGCCCGUGAGGACGAAACAG [G17C U28C]: the self-cleavage came to 0.276.

On to ACCGGAUGUGCUUACCGGUCAGAUGAGUCCGUGAGGACGAAACAG [U14A U21A], for which the self-cleavage came out at 0.542.

Regarding ACCGGAUGUGCUUUCCGGUCUGAUAAGUCCGUGAGCACGAAACAG [G25A G36C], the self-cleavage was found to be 0.302.

In the case of ACCGGAUGUGCUUUCCCGUCUGAUGAGUCCGUGAGGACGAAGCAG [G17C A42G], the self-cleavage was found to be 0.335.

As to ACCGGAUGUGCUUUCCGGUGUGAUGAGUCCGUGAGGGCGAAACAG [C20G A37G], the self-cleavage is 0.3.

Take ACCGGAUGUGCUUUUCGGUCUGAUGAGUCCGUGAGGACCAAACAG [C15U G39C]: the self-cleavage is 0.407.

As for ACCGAAUGUGCUUUCUGGUCUGAUGAGUCCGUGAGGACGAAACAG [G5A C16U], the self-cleavage was 1.54.

AGCGGAUGUGCUUUCCGAUCUGAUGAGUCCGUGAGGACGAAACAG [C2G G18A]: the self-cleavage was 0.459.

In the case of ACCGGAUGUGCUUUCCGGUAUGAUGAGUCCGUGAGGGCGAAACAG [C20A A37G], the self-cleavage worked out at 0.441.

Take ACCGGAUGUGCUUUCCGGUCUGAUCAGUCAGUGAGGACGAAACAG [G25C C30A]: the self-cleavage turned out to be 0.262.

Turning to ACCGGAUCUGCGUUCCGGUCUGAUGAGUCCGUGAGGACGAAACAG [G8C U12G], the self-cleavage was 1.43.

Regarding GCCGGAUGUGCUUUCCGGUCUGAUGAGUCCGUGAGGAUGAAACAG [A1G C38U], the self-cleavage stood at 1.49.

Consider ACCGGACGUGCUUUCCGGUCUGAUGAGUCCGUGAGGACGAAACGG [U7C A44G], for which the self-cleavage came out at 1.13.

As to ACCGGAUGUGUUUUCCGGUCUGAUGAGUCCGUGAGGUCGAAACAG [C11U A37U], the self-cleavage came to 0.665.

With ACCGGAUGUGCUUUGCGGACUGAUGAGUCCGUGAGGACGAAACAG [C15G U19A], the self-cleavage is 0.336.

Consider ACCGGAUGUGCUUUCCGUUCUGAUGAGGCCGUGAGGACGAAACAG [G18U U28G], for which the self-cleavage worked out at 0.581.
